Assays:
Assay in all cases: cell_activity
[1] = tested on: TnsA+TnsB+TnsC A225V TnsC A225V (Escherichia coli (Tn7)?)
[2] = tested on: TnsA+TnsB+TnsC+TnsE (Escherichia coli (Tn7)?); conditions: lambda hop
[3] = molecular target: TnsA+TnsB+TnsC+TnsD (Escherichia coli (Tn7)?) (UniProt P13988+P13989+P05846+A0A0H2XLP6); conditions: lambda hop
[4] = tested on: TnsA+TnsB+TnsC S401YΔ402 TnsC S401Y, Δ402 (Escherichia coli (Tn7)?); conditions: lambda hop; inhibited somewhat by TnsD
[5] = tested on: TnsA+TnsB+TnsC+TnsD+TnsE (Escherichia coli (Tn7)?); conditions: mating-out assay; +/- 1.1e-4
[6] = molecular target: TnsA+TnsB+TnsC (wild type) (Escherichia coli (Tn7)?) (UniProt P13988+P13989+P05846); conditions: mating-out assay

Substance: E. coli chromosome target (miniTn7-KmR from lambda KK1)
- relative transposition activity (fold vs TnsABCwt+E) ([1]; lambda hop, stimulated 500-fold by TnsD+attTn7): 8
- activity (KmR colonies/pfu) [2]: 2.2e-07
- activity (KmR colonies/pfu) [3]: 0.00018
- relative transposition activity (fold vs TnsABCwt+E) [4]: 50

Substance: pOX-G conjugable target plasmid
- activity (transposition frequency) ([1]; mating-out assay, +/- 8.1e-6): 8.8e-06
- activity (transposition frequency) [5]: 0.00055
- activity (transposition frequency) [6]: < 1e-07

— patent US6420524
